This is an account of results in patent publication US20180306791A1 (GlaxoSmithKline, published 2018).

In assay [1] the target is T1, BCMA (human, UniProt Q02223 1-184).
T1 construct: whole, on cells; Endogenous on human cell lines and patient cells, or from plasmid pCDNA3.1 hBCMA in ARH-77 cells; also called CD269; TNFRSF17
T1 sequence (looked up): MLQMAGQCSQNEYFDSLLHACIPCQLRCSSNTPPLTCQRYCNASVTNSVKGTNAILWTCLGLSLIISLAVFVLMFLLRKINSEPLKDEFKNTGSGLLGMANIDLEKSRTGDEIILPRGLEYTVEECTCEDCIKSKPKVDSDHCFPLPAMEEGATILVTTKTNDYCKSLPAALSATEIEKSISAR
Briefly: flow cytometry of CD138+ cells of patient GSK048; number in the title of panel II. Here is the method:
(§1) FIG. 14: J6M0-MMAF activity on primary CD138+ cells. (A) BM MNCs from one representative patient (GSK 087) with moderate BCMA expression incubated with J6M0-MMAF. Viable CD138+ cells (percentage of control) after 2 and 6 days (left panel) obtained by analyzing CD138+ cells by flow cytometry and gating CD138+ fraction (middle panel) onto AnnexinV/PI dot-plot (right panel). (B) Four representative experiments showing viable CD138+ cells after culture of BM MNCs from myeloma patients with concentrations of J6M0-MMAF at varying time points. For each patient, histogram showing binding of J6M0-wtFc PE to CD138+ cells (black) compared to cells pre-incubated with Fc block as control (white) and where available IHC staining with MIB1 (pink, nuclear) and CD138 (membrane, brown) as a measure of plasma cell proliferation.
(§2) For assessment of surface BCMA expression, murine anti-BCMA (clone 5307118G03, conjugated to AlexaFluor488), and the humanised antibody, J6M0-wtFc conjugated to PE were used in parallel. In the case of primary MM cells, staining was carried out on bone marrow (BM) mononuclear cells (MNCs) in 100μl PBS (Lonza)/0.5% BSA(PAA), using anti CD138 APC (Miltenyi), to identify tumour cells. […] A semi-quantitative measure of BCMA surface expression on MM cells was obtained from the ratio of the MFI of anti BCMA, versus isotype control stained samples (MFI ratio).

Assay [2] has as its target T1, BCMA. Briefly: flow cytometry of CD138+ cells of patient GSK087; number in the title of panel IV. Here is the method:
as §1, §2
For orientation: In flow cytometry, cells or beads pass a laser one at a time.

Assay [3] deals with T1, BCMA. Briefly: flow cytometry of CD138+ cells of patient GSK085; number in the title of panel III. Here is the method: as §1, §2
The target in assay [4] is T1, BCMA. Briefly: flow cytometry on JIM3 cells (sheet group MODERATE); ratio of MFI to isotype IgG2a-488.
The target of assay [5] is T1, BCMA. Description: flow cytometry on OPM2 cells (sheet group MODERATE); ratio of MFI to isotype IgG2a-488.
The target in assay [6] is T1, BCMA. Description: flow cytometry on U266 cells (sheet group MODERATE); ratio of MFI to isotype IgG2a-488.
Assay [7] has as its target T1, BCMA. Briefly: flow cytometry inset, low BCMA-transduced (LOW) ARH77 cells; ratio to isotype control.
In assay [8] the target is T1, BCMA. Briefly: flow cytometry on MM1.s cells (sheet group MODERATE); ratio of MFI to isotype IgG2a-488.
The target in assay [9] is T1, BCMA. Description: flow cytometry inset, high BCMA-transduced (HIGH) ARH77 cells; ratio to isotype control.
Assay [10] has as its target T1, BCMA. Briefly: flow cytometry on Daudi cells (non-MM line; group LOW); ratio of MFI to isotype IgG2a-488.
Assay [11] concerns the target T1, BCMA. Briefly: flow cytometry on RPMI8226 cells (printed RPM18226; group LOW); ratio of MFI to isotype IgG2a-488.
Assay [12] addresses T1, BCMA. Description: flow cytometry on JJN3 cells (printed JIN3 on the sheet; group MODERATE); ratio of MFI to isotype IgG2a-488.
Assay [13] concerns the target T1, BCMA. Briefly: flow cytometry inset, non-transduced (NT) ARH77 cells with negligible surface BCMA; ratio to isotype control.
Assay [14] concerns the target T1, BCMA. Description: flow cytometry, CD138+ gated bone marrow cells of patient GSK064 (group LOW); ratio of MFI to IgG2a-488 control.
The target of assay [15] is T1, BCMA. Briefly: flow cytometry, CD138+ gated bone marrow cells of patient GSK072 (group LOW); ratio of MFI to IgG2a-488 control.
The target of assay [16] is T1, BCMA. Description: flow cytometry on H929 cells (sheet group HIGH); ratio of MFI of BCMA stained to isotype IgG2a-488 stained cells.
Assay [17] concerns the target T1, BCMA. Description: flow cytometry, CD138+ gated bone marrow cells of patient GSK039 (group HIGH); ratio of MFI to IgG2a-488 control.
The target in assay [18] is T1, BCMA. Description: flow cytometry, CD138+ gated bone marrow cells of patient GSK048 (group HIGH); ratio of MFI to IgG2a-488 control.
The target of assay [19] is T1, BCMA. Description: flow cytometry, CD138+ gated bone marrow cells of patient GSK034 (group MODERATE); ratio of MFI to IgG2a-488 control.
Assay [20] has as its target T1, BCMA. Briefly: flow cytometry, CD138+ gated bone marrow cells of patient GSK045 (group MODERATE); ratio of MFI to IgG2a-488 control.
The target of assay [21] is T1, BCMA. Briefly: flow cytometry, CD138+ gated bone marrow cells of patient GSK050 (group MODERATE); ratio of MFI to IgG2a-488 control.
The target of assay [22] is T1, BCMA. Briefly: flow cytometry on Raji cells (non-MM line, sheet group NEGATIVE for BCMA); ratio of MFI to isotype IgG2a-488; reflects absence of the target on these cells.
For assay [23], the target named is T1, BCMA. Description: flow cytometry on SUPT1 cells (non-MM line, sheet group NEGATIVE for BCMA); ratio of MFI to isotype IgG2a-488; reflects absence of the target on these cells.
The target in assay [24] is T1, BCMA. Description: flow cytometry on KMM1 cells (sheet group NEGATIVE, text: low BCMA expression); ratio of MFI to isotype IgG2a-488; reflects the low level of the target on these cells.

B1: J6M0-wtFc (antibody, IgG1, V domains shown)
VH: QVQLVQSGAEVKKPGSSVKVSCKASGGTFSNYWMHWVRQAPGQGLEWMGATYRGHSDTYYNQKFKGRVTITADKSTSTAYMELSSLRSEDTAVYYCARGAIYDGYDVLDNWGQGTLVTVSS
VL: DIQMTQSPSSLSASVGDRVTITCSASQDISNYLNWYQQKPGKAPKLLIYYTSNLHSGVPSRFSGSGSGTDFTLTISSLQPEDFATYYCQQYRKLPWTFGQGTKLEIKR
notes: PE-conjugated for flow cytometry; no sentence says it outright; also called J6M0-wtFc PE; wild type Fc form of J6M0
Take B1: the MFI ratio in assay [1] was determined as 16.7; in assay [2], 7; in [3], 3.65.

B2: S307118G03 (antibody, from another filing, mouse IgG2a, V domains shown)
VH: EVQLQQSGPELVKPGASVKISCKASGYTFTDYYMKWVKQSHGKSLEWIGEIYPNNGGITYNQKFKGKATLTVDKSSSTAYMELRSLTSEDSAVYYCANGYEFVYWGQGTLVTVSA
VL: DIQMTQTASSLSASLGDRVTISCSASQGISNYLNWYQQKPDGTVKLLIYYTSSLHSGVPSRFSGSGSGTDYSLTISNLEPEDIATYYCQQYSKLPWTFGGGTKLEIKR
B2: the MFIr in assay [4] is 5.7; in assay [5], 4.5; in [6] it was 5.8; in [7], 16.6; in [8], 6.8; in assay [9], 54.8. Besides, the MFIr was found to be 2.9 in [10]; 2 in assay [11]; 4.6 in assay [12]; 1.8 in assay [13]; 2.5 in assay [14]; 2 in [15]. Besides, the MFIr in [16] amounted to 15.3; in assay [17], 11.2; in assay [18], 11.2; in [19] it was 4.8; in assay [20], 3.8; in assay [21], 6. Besides, the values for the MFIr in [22], in assay [23] and in assay [24] were 1.2, 1 and 1.1, respectively.
